The record followed here is publication PMC3744504, “Soluble Variants of Human Recombinant Glutaminyl Cyclase” (PLoS ONE, 2013).

The data set concerns the molecule itself. Description: SEC; analytical size exclusion chromatography (Superdex 5/150 column) on 50 µl of sample after the Ni-affinity step.

B1: wild type human Glutaminyl Cyclase (hQPCT), Ala33-Leu361, His6-tagged (enzyme, UniProt Q16769 33-361, looked up)
chain: ASAWPEEKNYHQPAILNSSALRQIAEGTSISEMWQNDLQPLLIERYPGSPGSYAARQHIMQRIQRLQADWVLEIDTFLSQTPYGYRSFSNIISTLNPTAKRHLVLACHYDSKYFSHWNNRVFVGATDSAVPCAMMLELARALDKKLLSLKTVSDSKPDLSLQLIFFDGEEAFLHWSPQDSLYGSRHLAAKMASTPHPPGARGTSQLHGMDLLVLLDLIGAPNPTFPNFFPNSARWFERLQAIEHELHELGLLKDHSLEGRYFQNYSYGGVIQDDHIPFLRRGVPVLHLIPSPFPEVWHTMDDNEENLDESTIDNLNKILQVFVLEYLHL
notes: human glutaminyl-peptide cyclotransferase (glutaminyl cyclase), residues Ala33-Leu361, cloned in pQE80L; Not glycosylated (E. coli); Apo-protein mass by MALDI 38735 Da; No preparative size exclusion step was applied to the wild type; also called wild type hQPCT; Glutaminyl-peptide Cyclotransferase; not shown: His6, N-terminal, kept
Consider B1, for which the binding result is recorded as “binds”.
